In paper PMC4840315:

How the values were obtained:
insulin [1] = test: ligand dot blot (densitometric analysis of dots); conditions: 2.5 μl (0.09 mg/ml) protein dotted on nitrocellulose; 1 μg/ml insulin, 4 °C overnight; parent: est. 0.12; read off a plot
insulin [2] = test: pull-down (Ni-Sepharose 6 column, Western blot with anti-insulin antibody, densitometric analysis of bands); conditions: 0.1 mg His6-tagged-IGFBP7 mixed with 0.5 mg insulin; parent: est. 0.20; read off a plot

Row | Substance | response (insulin [1]) [Gradation] | response (insulin [2]) [Gradation]
1 | wild-type IGFBP7 (insulin-like growth factor binding protein 7), His6-tagged (from UniProt Q16270) R198I; H200F | 0.025 | 0.1
2 | wild-type IGFBP7 (insulin-like growth factor binding protein 7), His6-tagged (from UniProt Q16270) H200F | 0.11 | 
3 | wild-type IGFBP7 (insulin-like growth factor binding protein 7), His6-tagged (from UniProt Q16270) R198E | 0.53 | 
